Laboratory results: patent US20140186363A1 (UNIVERSITY OF ZURICH, published 2014)

Experiments:
[1] = biological target: T1, MAGEA3 (human, UniProt P43357 1-314); test: ELISA, plate coated with recombinant MAGEA3, serial dilution of antibody
T1 construct: also called recombinant MAGEA3; MAGEA3-protein

[2] = biological target: T2, MAGEA3 peptide no 8; test: ELISA on plate-coated 20mer peptide, antibody at 1 µg/ml, anti-human IgG Fc-HRP
T2 construct: also called MAGEA3 aa 71-90
T2 peptide: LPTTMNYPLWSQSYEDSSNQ
Experimental: (§1) 20mer peptides spanning the entire MAGEA3 protein with 10 aa overlaps shared by each adjacent peptide (Peptides&Elephants, Nuthetal, Germany) were used to coat Maxisorp ELISA plates (Nunc, Rochester, N.Y.). As control a 20mer peptide representing amino acids 40-21 from the NY-ESO-1 protein was used (rev). The numbering of amino acids of MAGEA3 is based on SEQ ID No:41.
(§2) Human recombinant antibody was used at a concentration of 1 μg/ml. Bound human antibody was detected using horseradish peroxidase-conjugated goat anti-human IgG Fc-gamma specific antibodies (Jackson ImmunoResearch, Europe Ltd., Cambridgeshire, UK).

[3] = biological target: T3, MAGEA3 peptide no 7; test: as above
T3 construct: also called MAGEA3 aa 61-80
T3 peptide: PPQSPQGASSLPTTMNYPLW
Experimental: as §1, §2

[4] = biological target: T4, MAGEA3 peptide no 24; test: as above
T4 construct: also called MAGEA3 aa 231-250
T4 peptide: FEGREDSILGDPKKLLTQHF
Experimental: as §1, §2

[5] = biological target: T5, MAGEA3 peptide no 21; test: peptide ELISA (coated 20mer)
T5 construct: also called MAGEA3 aa 201-220
T5 peptide: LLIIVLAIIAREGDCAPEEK
Experimental: as §1, §2

[6] = biological target: T6, MAGEA3 peptide no 27; test: peptide ELISA (coated 20mer)
T6 construct: also called MAGEA3 aa 261-280
T6 peptide: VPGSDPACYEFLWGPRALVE
Experimental: as §1, §2

[7] = biological target: T7, MAGEA3 peptide no 9; test: peptide ELISA (coated 20mer)
T7 construct: also called MAGEA3 aa 81-100
T7 peptide: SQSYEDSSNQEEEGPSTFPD
Experimental: as §1, §2

[8] = biological target: T8, MAGEA3 peptide no 5; test: peptide ELISA (coated 20mer)
T8 construct: also called MAGEA3 aa 41-60
T8 peptide: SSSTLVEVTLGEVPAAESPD
Experimental: as §1, §2

[9] = biological target: T9, MAGEA3 peptide no 18; test: peptide ELISA (coated 20mer)
T9 construct: also called MAGEA3 aa 171-190
T9 peptide: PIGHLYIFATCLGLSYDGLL
Experimental: as §1, §2

[10] = biological target: T10, MAGEA3 peptide no 17; test: peptide ELISA (coated 20mer)
T10 construct: also called MAGEA3 aa 161-180
T10 peptide: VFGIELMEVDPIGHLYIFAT
Experimental: as §1, §2

[11] = biological target: T11, MAGEA3 peptide no 2; test: peptide ELISA (coated 20mer)
T11 construct: also called MAGEA3 aa 11-30
T11 peptide: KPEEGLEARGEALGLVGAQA
Experimental: as §1, §2

[12] = biological target: T12, MAGEA3 peptide no 11; test: peptide ELISA (coated 20mer)
T12 construct: also called MAGEA3 aa 101-120
T12 peptide: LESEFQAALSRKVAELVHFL
Experimental: as §1, §2

[13] = biological target: T13, MAGEA3 peptide no 10; test: peptide ELISA (coated 20mer)
T13 construct: also called MAGEA3 aa 91-110
T13 peptide: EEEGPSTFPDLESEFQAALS
Experimental: as §1, §2

[14] = biological target: T14, MAGEA3 peptide no 13; test: peptide ELISA (coated 20mer)
T14 construct: also called MAGEA3 aa 121-140
T14 peptide: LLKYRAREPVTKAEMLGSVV
Experimental: as §1, §2

[15] = biological target: T15, MAGEA3 peptide no 29; test: peptide ELISA (coated 20mer)
T15 construct: also called MAGEA3 aa 281-300
T15 peptide: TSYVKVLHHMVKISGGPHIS
Experimental: as §1, §2

[16] = biological target: T16, MAGEA3 peptide no 20; test: peptide ELISA (coated 20mer)
T16 construct: also called MAGEA3 aa 191-210
T16 peptide: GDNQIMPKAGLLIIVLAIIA
Experimental: as §1, §2

[17] = biological target: T17, MAGEA3 peptide no 19; test: peptide ELISA (coated 20mer)
T17 construct: also called MAGEA3 aa 181-200
T17 peptide: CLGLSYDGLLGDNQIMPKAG
Experimental: as §1, §2

[18] = biological target: T18, MAGEA3 peptide no 28; test: peptide ELISA (coated 20mer)
T18 construct: also called MAGEA3 aa 271-290
T18 peptide: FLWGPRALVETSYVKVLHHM
Experimental: as §1, §2

[19] = biological target: T19, MAGEA3 peptide no 15; test: peptide ELISA (coated 20mer)
T19 construct: also called MAGEA3 aa 141-160
T19 peptide: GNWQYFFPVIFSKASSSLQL
Experimental: as §1, §2

[20] = biological target: T20, MAGEA3 peptide no 1; test: peptide ELISA (coated 20mer)
T20 construct: also called MAGEA3 aa 1-20
T20 peptide: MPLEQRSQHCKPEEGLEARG
Experimental: as §1, §2

[21] = biological target: T21, MAGEA3 peptide no 3; test: peptide ELISA (coated 20mer)
T21 construct: also called MAGEA3 aa 21-40
T21 peptide: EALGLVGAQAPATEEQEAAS
Experimental: as §1, §2

[22] = biological target: T22, MAGEA3 peptide no 12; test: peptide ELISA (coated 20mer)
T22 construct: also called MAGEA3 aa 111-130
T22 peptide: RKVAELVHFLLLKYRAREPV
Experimental: as §1, §2

[23] = biological target: T23, MAGEA3 peptide no 22; test: peptide ELISA (coated 20mer)
T23 construct: also called MAGEA3 aa 211-230
T23 peptide: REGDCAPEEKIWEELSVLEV
Experimental: as §1, §2

[24] = biological target: T24, MAGEA3 peptide no 14; test: peptide ELISA (coated 20mer)
T24 construct: also called MAGEA3 aa 131-150
T24 peptide: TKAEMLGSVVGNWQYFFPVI
Experimental: as §1, §2

[25] = biological target: T25, MAGEA3 peptide no 30; test: peptide ELISA (coated 20mer)
T25 construct: also called MAGEA3 aa 291-310
T25 peptide: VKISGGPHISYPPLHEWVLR
Experimental: as §1, §2

[26] = biological target: T26, MAGEA3 peptide no 25; test: peptide ELISA (coated 20mer)
T26 construct: also called MAGEA3 aa 241-260
T26 peptide: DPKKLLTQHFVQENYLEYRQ
Experimental: as §1, §2

[27] = biological target: T27, MAGEA3 peptide no 26; test: peptide ELISA (coated 20mer)
T27 construct: also called MAGEA3 aa 251-270
T27 peptide: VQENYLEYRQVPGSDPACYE
Experimental: as §1, §2

[28] = biological target: T28, MAGEA3 peptide no 6; test: peptide ELISA (coated 20mer)
T28 construct: also called MAGEA3 aa 51-70
T28 peptide: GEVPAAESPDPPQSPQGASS
Experimental: as §1, §2

[29] = biological target: T29, MAGEA4 (UniProt P43358 1-317, limits assumed); test: Western blot of recombinant protein, anti-human IgG-HRP
T29 construct: also called recombinant MAGEA4-protein; CT1.4
T29 sequence (looked up): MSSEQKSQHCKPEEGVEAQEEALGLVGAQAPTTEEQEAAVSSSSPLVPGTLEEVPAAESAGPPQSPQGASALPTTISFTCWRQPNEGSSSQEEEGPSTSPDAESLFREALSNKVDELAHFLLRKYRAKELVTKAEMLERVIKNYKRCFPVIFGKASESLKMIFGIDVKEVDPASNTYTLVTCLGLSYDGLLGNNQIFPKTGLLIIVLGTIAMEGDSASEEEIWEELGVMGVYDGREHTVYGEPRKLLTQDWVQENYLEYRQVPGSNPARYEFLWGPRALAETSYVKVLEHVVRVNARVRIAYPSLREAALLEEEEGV
Experimental: Recombinant MAGEA3- and recombinant MAGEA4-protein were separated in SDS-PAGE and blotted onto membranes. Membranes were incubated with human antibodies 122G3 or 32H2. Binding of human antibodies to proteins on the membrane was evaluated using an HRP-labeled goat anti human IgG (Jackson Immunoresearch, Milan Analytica AG, Rheinfelden, Switzerland). The results are depicted in FIG. 3.

B1: 122G3 (antibody, V domains shown)
VH: QVQLVQSGAEVKKPGASVKVSCKASGYTFTNYAIHWVRQAPGQRLEWMGWINAGKGNTKYSQKFQGRVTITRDTSADTTYMELSSLRSEDTAVYFCAQAGLSSGLYRDYWGQGTPVTVSS
VL: EIVMTQSPATLSVSPGERATLSCRASQSVSSDLAWYQQKRGQAPRLLIYGASTRATGIPARFSGSGSGTEFTLTISSLQSEDFAVYWCQQYNDWPLTFGGGTKVEIN
notes: Patient-derived human antibody made recombinantly; also called human monoclonal antibody 122G3
0.023 nM: EC50 [1]
binds: binding result [2] | binding result [3] | binding result [4]
no binding: binding result [29]
no binding (tested: 1 µg/ml): binding result [5] | binding result [6] | binding result [7] | binding result [8] | binding result [9] | binding result [10] | binding result [11] | binding result [12] | binding result [13] | binding result [14] | binding result [15] | binding result [16] | binding result [17] | binding result [18] | binding result [19] | binding result [20] | binding result [21] | binding result [22] | binding result [23] | binding result [24] | binding result [25] | binding result [26] | binding result [27] | binding result [28]
~0.02 nM: EC50 (read off the curve) [1]
